Results reported in patent US20110086044A1, “Compositions and Methods to Inhibit HPV Infection” (University of Southern California, priority 2009, published 2011).

Key:
[1] = cited from earlier work
ANXA2 = assay: siRNA inhibition of ANXA2 in LC, ANXA2 protein expression by immunoblot; format: cell-based, human; settings: Amaxa nucleofection
Protocol: (§1) FIGS. 8A & B are gel pictures showing downregulation of ANXA2 inhibits uptake of HPV16L1L2 VLP. A. LC were transfected using the Amaxa Nucleofector kit without siRNA (Untreated), with control siRNA or with two different ANXA2 siRNA sequences. The cells were incubated for 6 days before analysis of ANXA2 protein expression by immunoblot. GAPDH served as the loading control. One representative experiment of three is shown. B. LC were transfected using the Amaxa Nucleofector kit without siRNA (Untreated), with control siRNA or with ANXA2 siRNA #2. The cells were incubated for 6 days and exposed to CFDA-SE labeled HPV16L1L2 VLP for 15 min. Uptake was assessed by flow cytometry.
(§2) siRNA Inhibition of ANXA2 in LC and HPV16 VLP Uptake Assay. ANXA2 siRNA was synthesized at the USC Genomics Core (Los Angeles, Calif.) based on the sequences: ANXA2 siRNA #1 ([…])/([…]) (SEQ ID NO: 5); ANXA2 siRNA #2 ([…])/([…]) (SEQ ID NO: 6). Control siRNA was from (S76). ANXA2 or Control siRNA was transfected into LC using the Amaxa Human Dendritic Cell Nucleofector kit (Lonza) as directed by the manufacturer's instructions. The cells were incubated for 6 days before they were analyzed by an anti-ANXA2 immunoblot and used in an HPV16 VLP uptake assay. HPV VLP were labeled with CFDA-SE as described above. […] Finally, HPV16 VLP uptake by LC was assessed via flow cytometry.

HPV16L1L2 VLP [2] = assay: HPV16L1L2 VLP uptake assay in siRNA-transfected LC (flow cytometry); format: cell-based, human; settings: 6 days after transfection, VLP 15 min; compared to untreated and control siRNA treated LC
Protocol: as §1, §2

ANXA2 heterotetramer = target: T1, ANXA2 heterotetramer (Homo sapiens, UniProt P07355); assay: L2108-120 peptide pulldown assay from Langerhans cells (silver stain, mass spectrometry, immunoblot); format: binding
T1 construct: endogenous in cells; host or cells: human monocyte-derived Langerhans cells (from PBL of healthy donors)
T1 sequence (P07355 2-339 limits assumed): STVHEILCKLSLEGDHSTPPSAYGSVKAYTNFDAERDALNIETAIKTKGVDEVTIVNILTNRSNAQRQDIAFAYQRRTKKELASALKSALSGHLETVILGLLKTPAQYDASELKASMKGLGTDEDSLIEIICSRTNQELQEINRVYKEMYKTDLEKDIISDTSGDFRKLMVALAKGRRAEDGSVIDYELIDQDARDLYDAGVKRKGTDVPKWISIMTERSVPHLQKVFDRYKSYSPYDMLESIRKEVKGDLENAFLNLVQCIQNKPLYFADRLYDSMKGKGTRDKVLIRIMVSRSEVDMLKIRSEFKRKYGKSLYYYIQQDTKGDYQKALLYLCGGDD
T1 sequence (P60903 2-97 partner limits assumed): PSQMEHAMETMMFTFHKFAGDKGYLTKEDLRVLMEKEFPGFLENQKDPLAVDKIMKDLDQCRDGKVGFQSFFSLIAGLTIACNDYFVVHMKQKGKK
Protocol: LC were incubated with either no peptide or 50 μg/5×10^5 cells of 6×His-L2108-120 peptide and subsequently cross-linked with DTSSP. Cells were then lysed and mixed with a Ni-NTA agarose slurry overnight and ten fractions were eluted. Non-reduced eluates were electrophoresed, transferred to nitrocellulose and probed with an anti-ANXA2 antibody or an anti-6×His antibody, followed by a peroxidase-labeled secondary antibody. Antibody binding was detected with enhanced chemiluminescence.
A. LC were incubated with either no peptide or (6×)His-L2108-120 peptide and subsequently cross-linked with DTSSP. Cells were lysed and mixed with a Ni-NTA agarose slurry and eluted. Reduced eluate 5 was electrophoresed and silver stained. The unique band right above ˜39 kDa was isolated and analyzed by mass spectrometry. One representative experiment of two is shown. B. LC were incubated with either no peptide or (6×)His-L2108-120 peptide and subsequently cross-linked with DTSSP. Cells were then lysed and mixed with a Ni-NTA agarose slurry overnight and eluted. Eluates were then electrophoresed, transferred to nitrocellulose and probed with either an anti-ANXA2 or an anti-ANXA2 light chain antibody. […]. One representative experiment of two is shown.
L2108-120 Peptide Pulldown Assay. […] The eluates were collected and analyzed by non-reducing immunoblots and reduced silver stain gels. […]

HPV16L1L2 VLP [3] = assay: HPV16L1L2 VLP binding assay on Langerhans cells (flow cytometry, H16.V5 antibody); format: cell-based, human; settings: increasing peptide concentrations (1-100 μg)/0.5×10^6 cells, 1 h at 4° C.
Protocol: LC were incubated with increasing concentrations of the L2108-120 peptide and subsequently incubated with HPV16L1L2 VLP. HPV16L1L2 VLP remaining on the surface of LC were detected using a L1 specific conformational antibody (H16.V5). Binding was assessed by flow cytometry.
HPV16L1L2 VLP Binding Assay. LC were incubated with the HPV16 L2 peptide aa 108-120 ([…] SEQ ID NO: 4) (Kawana et al. (2001) J. Virol. 75: 2331-6) at varying concentrations (1-100 μg)/0.5×10^6 cells for 1 h at 4° C. Subsequently, the LC were incubated with 0.25 μg of HPV16L1L2 VLP/treatment for 1 h at 4° C. and then incubated with an anti-L1 (H16.V5) antibody (a gift from Neil Christensen, Penn State University) at a concentration of 1:25,000 for 30 min at 4° C. The cells were then incubated with biotinylated anti-mouse-IgG2b at a concentration of 1:50 for 30 min at 4° C. Next, the HPV16L1L2 VLP/anti-L1/biotin treated cells were stained with streptavidin-FITC at a concentration of 1:50 for 30 min. The cells were washed between each incubation with 135 μl FACS buffer. In control experiments, cells were left untreated or probed with either peptide/anti-L1/biotin-strepavidin-FITC or VLP/anti-L1/biotin-strepavidin-FITC. Finally, HPV16L1L2 VLP binding to LC was assessed by flow cytometry. Binding is calculated as the MFI of the sample divided by the MFI of the untreated control multiplied by 100.

HPV16L1L2 VLP [4] = assay: HPV16 VLP uptake assay with SLPI: uptake of CFDA-SE labeled HPV16L1L2 VLP by Langerhans cells (flow cytometry); format: cell-based, human
Protocol: (§3) LC were left untreated or incubated with 30 μg human recombinant SLPI (R&D Systems) for 1 h at 4° C. Subsequently, the cells were washed and incubated with CFDA-SE-labeled HPV16 L1 VLP or HPV16 L1L2 VLP at 37° C. After 15 min, cells were washed at 4° C., then fixed with 1% paraformaldehyde and analyzed for intracellular CFDA-SE by flow cytometry. Percent of VLP uptake was calculated using the following equation: [(MFI experimental plus SLPI)−(MFI background)/[(MFI experimental untreated cells)−(MFI background)]×100. Shown is the average uptake of 3 experiments (±SEM). *p=0.04 compared to untreated LC.
(§4) FIGS. 7A & B are charts showing that SLPI inhibits the uptake of HPV16L1L2 VLP by LC. A. LC were incubated with increasing concentrations of SLPI, then incubated with CFDA-SE labeled HPV16L1L2 VLP for 15 min. Uptake of CFDA-SE labeled HPV16L1L2 VLP by LC was assessed by flow cytometry. The mean percentage of uptake ±SEM of three separate experiments is presented (*P<0.05 by a two-tailed, paired t-test, as compared to the negative control). […] Uptake of CFDA-SE labeled HPV16 VLP by LC was assessed by flow cytometry. […]
(§5) HPV16 VLP Uptake Assay with SLPI. […] Finally, HPV16 VLP uptake by LC was assessed via flow cytometry. Percent uptake is calculated as the mean fluorescent intensity (MFI) of the sample divided by the MFI of the untreated control multiplied by 100.

HPV16L1 VLP = assay: HPV16 VLP uptake assay with SLPI: uptake of CFDA-SE labeled HPV16L1 VLP by Langerhans cells (flow cytometry); format: cell-based, human; settings: SLPI 30 ug/ml (optimal concentration), VLP 15 min; Example 2
Protocol: as §3, §4, §5

Q: For `CCOCc1nc2c(N)nc3ccccc3c2[nH]1` [CL097], which water solubility [1] is on record?
A: ≤ 20 mg/mL

Q: Which “time of optimal ANXA2 protein knockdown post-transfection” value (ANXA2) does the source give for “(CGGGAUGCUUUGAACAUUGAATT)/(UUCAAUGUUCAAAGCAUCCCGTT) (chemistry not given here) [ANXA2 siRNA #2]” here?
A: 6 days

Q: And the “uptake of HPV16L1L2 VLP into LC” value (HPV16L1L2 VLP [2])?
A: significantly reduced the uptake of HPV16L1L2 VLP into LC

Q: For “(6×)His-L2108-120 peptide: 6×His-tagged HPV16 L2 aa 108-120 peptide used for pulldown (HHHHHHLVEETSFIDAGAP)”, which “protein pulled down from LC, unique silver-stain band identified by mass spectrometry” value (ANXA2 heterotetramer; 50 μg/0.5×10^6 cells, DTSSP cross-linking, elution 5) is on record?
A: predicted to be annexin A2 (ANXA2)

Q: For “LVEETSFIDAGAP (listed as Human papillomavirus) [L2108-120 peptide]”, which “HPV16L1L2 VLP bound to the LC surface” value (HPV16L1L2 VLP [3]) is on record?
A: significantly decreased numbers of HPV16L1L2 VLP bound to the LC surface

Q: And the “proteins in pulldown eluates by immunoblot” value (ANXA2 heterotetramer; anti-ANXA2 and anti-ANXA2 light chain antibodies)?
A: both ANXA2 and ANXA2 light chain were present

B1: SLPI: recombinant human secretory leukocyte protease inhibitor (R&D Systems), serine protease inhibitor and ligand of ANXA2; SEQ ID NO: 2 (protein, listed as Homo sapiens)
chain: MKSSGLFPFLVLLALGTLAPWAVEGSGKSFKAGVCPPKKSAQCLRYKKPECQSDWQCPGKKRCCPDTCGIKCLDPVDTPNPTRRKPGKCPVTYGQCLMLNPPNFCEMDGQCKRDLKCCMGMCGKSCVSPVKA
Q: For B1, which “uptake of HPV16L1L2 VLP into LC” value (HPV16L1L2 VLP [4]; 30 μg SLPI 1 h at 4° C., then VLP 15 min at 37° C., FIG. 2, 3 experiments) is on record?
A: blocks HPV16 L1L2 VLP uptake into LC

Q: And the “internalization of HPV16L1L2 VLP by LC” value (HPV16L1L2 VLP [4]; increasing concentrations (5-30 μg/ml) of SLPI, VLP 15 min, Example 2)?
A: LC internalized decreasing amounts of HPV16L1L2 VLP

Q: What about the “internalization of HPV16L1 VLP by LC” value (HPV16L1 VLP) of the same molecule?
A: did not inhibit HPV16L1 VLP uptake
